Assays:
rVλ6WIL fibrils = experiment: rVλ6WIL (WIL) fibril extension assay with biotinylated rVλ6WIL monomer; type: biochemical; details: for % Change (at 2 μM) in rVλ6WIL fibril extension: at 2 μM sample, 20 nM Biotin-WIL, blocking agent BSA, compared to control sample
Procedure: A WIL fibril extension assay was developed for analyzing in vitro amyloid fibril formation using biotinylated WIL monomers.
First, a high binding 96-well ELISA plate was coated with 0.83 μM sonicated rVλ6WIL synthetic fibrils ([…]). The fibrils were then dried in a 37° C. oven. Subsequently, the plate was washed twice with wash buffer (PBS+0.05% tween 20). The plate was then blocked with […] of 1% BSA in PBS for 1 hour at 37° C. The blocking buffer was then removed and the plate was washed twice with wash buffer. For positive control wells, 100 mL of 20 nM biotinylated rVλ6WIL monomer (biotinylated with EZ-link Sulfo-NHS-biotin (ThermoFisher Scientific) following their protocol) in 1% BSA+0.05% tween 20 in PBS (BSAT) was added per well. For test wells, 100 mL of a mix of 20 nM biotinylated rVλ6WIL monomer plus an amyloid-reactive peptide, an amyloid-reactive antibody, or an amyloid-reactive antibody-peptide fusion protein (2, 0.5, 0.05, 0.01, 0.005 and 0.001 […]) in BSAT was added per well. Background control wells (containing no fibrils) contained […] of 20 nM biotinylated rVλ6WIL monomer in BSAT added to them. The microplate was then incubated for 1 hour at 37° C. The plate was then washed twice with wash buffer. 100 mL of a 1:1000 dilution of europium-labeled streptavidin (Perkin Elmer) in BSAT was then added into each well and incubated for 1 hour at 37° C. Next, the plate was washed 3× with wash buffer. To quantify amyloid fibril formation, […] of enhancement solution (Perkin Elmer) was added to each well and time-resolved fluorescence emission was measured in each well.
The methods of Example 1 were carried out in the presence of the amyloid reactive peptide p5R, an amyloid-reactive antibody-peptide fusion protein, an amyloid-reactive humanized antibody, or a control.
Assay conditions included the following: 20 nM biotinylated WIL monomer, 1 hour incubation using BSA as a blocking agent, and 50 μL/well of 10 μg/mL fibrils (0.83 μg).

[1] = target: rVλ6WIL synthetic fibrils; experiment: fibril extension assay: 20 nM biotin-WIL monomer binding to plate-coated rVλ6WIL fibrils in the presence of 2 µM sample, BSA block, europium-streptavidin

Row | % Change (at 2 µM) of rVλ6WIL fibril extension against control [1] [%] | Molecule | % Change (at 2 μM) in rVλ6WIL fibril extension (rVλ6WIL fibrils) | rVλ6WIL fibril extension in the presence of the peptide (rVλ6WIL fibrils; concentrations between 0.001 μM to 2.0 μM, FIGS. 2A, 2B) | extension of rVλ6WIL fibrils in the presence of the antibody (rVλ6WIL fibrils; beginning at a concentration of 0.01 μM, FIGS. 4A, 4B) | concentration at which significant attenuation of rVλ6WIL fibril extension begins (rVλ6WIL fibrils; tested 0.001 to 2 μM) [nM] | concentration of maximum level of rVλ6WIL fibril extension inhibition (rVλ6WIL fibrils; tested 0.001 to 2 μM) [nM]
1 | – | Amyloid reactive peptide p5R: amyloid-reactive peptide p5R, SEQ ID NO: 2, RAQRAQARQARQAQRAQRAQARQARQ (RAQRAQARQARQAQRAQRAQARQARQ) | +12% | insufficient to inhibit rVλ6WIL fibril extension | – | – | –
2 | -89 | amyloid-reactive humanized antibody (VH SEQ ID NO:55 / VL SEQ ID NO:36) (antibody, V domains shown) VH: QVQLQESGPGLVKPSETLSLTCTVSGFSLSSYGVSWIRQPPGKGLEWLGVIWGEGSTNYHPNLMSRVTISVDTSKSQVLFKLSSVTAADTAVYYCATLDYWGQGTSVTVSS VL: DVVMTQSPLSLPVTLGQPASISCRSSQSLVHRSGNTYLHWFQQRPGQSPRLLIYKVSNRFSGVPDRFSGSGSGTDFTLKISRVEAEDVGVYFCFQTTYVPNTFGGGTKLEIK | −89% | – | significantly attenuated | 10 | 2000
3 | 12 | RAQRAQARQARQAQRAQRAQARQARQ [amyloid-reactive peptide p5R] | – | – | – | – | –
